From patent US20120121587A1 (Chugai, published 2012)

T1: Human recombinant AXL-FND1 (GST-FND1), from pET-41b(+) (human, UniProt P30530 225-331)
T1 construct: Expressed in E. coli, purified on Glutathione Sepharose; analyte in all Biacore measurements; GST put first by the usual layout of pET-41; not shown: GST-tag of vector pET-41b(+) (Novagen)
T1 sequence (looked up): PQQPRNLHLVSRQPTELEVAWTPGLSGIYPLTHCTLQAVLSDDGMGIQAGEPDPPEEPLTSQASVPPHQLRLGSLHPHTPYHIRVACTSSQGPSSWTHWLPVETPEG


target: T1, Human recombinant AXL-FND1 (GST-FND1), …; experiment: SPR (Biacore T100): antibody captured on Protein A, GST-FND1 as analyte
Experimental: Kinetic analyses of antigen-antibody reactions of humanized AXL antibodies were carried out using Biacore T100 (BIACORE). rec-Protein A (Zymed) (hereinafter, Protein A) was immobilized onto a sensor chip, various antibodies were bound to it, then an antigen as the analyte was flushed to measure the antibody-antigen interaction. Human recombinant AXL-FND1 (prepared in 2-2; hereinafter referred to as GST-FND1) prepared at various concentrations was used as the antigen. From the sensorgrams obtained through the measurements, kinetic parameters, namely binding rate constant kₐ (1/Ms) and dissociation rate constant kd (1/s), were calculated, and Kd (M) was calculated based on these values. Biacore T100 Evaluation Software (BIACORE) was used to calculate each of the parameters.
The sensor chips were produced by immobilizing approximately 3000 RU of Protein A onto CM5 (BIACORE) by amine coupling. Using the produced sensor chip, kinetic analyses were carried out on the interaction between the Protein A-bound antibodies and GST-FND1. HBS-EP+ was used as the running buffer, and the flow rate was set to 30 μL/min. Each antibody was prepared at 1 μg/mL using the running buffer, and was subjected to binding with Protein A for two minutes. GST-FND1 as the analyte was prepared at 0.5 and 2.0 μg/mL using HBS-EP+. Measurements were carried out by first binding the various humanized AXL antibodies, chimeric AXL antibodies, or mouse AXL antibodies of interest to Protein A, then applying an analyte solution to them for a two-minute interaction, and then switching to HBS-EP+ (BIACORE) for a two-minute measurement of the dissociation phase. After completion of measurement of the dissociation phase, 30 μL of 10 mM glycine-HCl (pH 2.0) was used for washing to regenerate the sensor chip. Such binding, dissociation, and regeneration were defined as one cycle of analysis. All experiments were performed at 25° C.
Affinity evaluation of each of the variants by Biacore was carried out by the method of Example 2.

Kd [nM] | Binder
2.08 | H36/L11 (antibody, human IgG1, kappa) heavy: not shown light: DVVMTQSPLSLPVTLGQPASISCQSSQNIVHTNGNTYLEWYQQKPGKAPELLIYKVSNRFSGVPDRFSGSGSGTDFTLKISRVEAEDVGVYYCFQGSHIPFTFGQGTKVEIERTVAAPSVFIFPPSDEQLKSGTASVVCLLNNFYPREAKVQWKVDNALQSGNSQESVTEQDSKDSTYSLSSTLTLSKADYEKHKVYACEVTHQGLSSPVTKSFNRGEC
1.86 | H46/L28 (antibody, human IgG1, kappa) heavy: not shown light: DVVMTQSPLSLPVTLGQPASISCRSSQNIVHTNGNTYLEWYQQKPGKAPKLLIYKVSNRFSGVPDRFSGSGSGTDFTLKISRVEAEDVGVYYCFQGSHIPFTFGQGTKLEIKRTVAAPSVFIFPPSDEQLKSGTASVVCLLNNFYPREAKVQWKVDNALQSGNSQESVTEQDSKDSTYSLSSTLTLSKADYEKHKVYACEVTHQGLSSPVTKSFNRGEC
1.94 | H36/L27 (antibody, human IgG1, kappa) heavy: not shown light: DVVMTQSPLSLPVTLGQPASISCRSSRNIVHTNGNTYLEWYQQKPGKAPELLIYKVSNRFSGVPDRFSGSGSGTDFTLKISRVEAEDVGVYYCFQGSHIPFTFGQGTKLEIKRTVAAPSVFIFPPSDEQLKSGTASVVCLLNNFYPREAKVQWKVDNALQSGNSQESVTEQDSKDSTYSLSSTLTLSKADYEKHKVYACEVTHQGLSSPVTKSFNRGEC
1.88 | H46/L10 (antibody, human IgG1, kappa) heavy: not shown light: DVVMTQSPLSLPVTLGQPASISCRSSQNIVHTNGNTYLEWYQQKPGKAPELLIYKVSNRFSGVPDRFSGSGSGTDFTLKISRVEAEDVGVYYCFQGSHIPFTFGQGTKVEIERTVAAPSVFIFPPSDEQLKSGTASVVCLLNNFYPREAKVQWKVDNALQSGNSQESVTEQDSKDSTYSLSSTLTLSKADYEKHKVYACEVTHQGLSSPVTKSFNRGEC
1.84 | H46/L1 (antibody, human IgG1, kappa) heavy: not shown light: DVVMTQSPLSLPVTLGQPASISCQSSQNIVHTNGNTYLEWYQQKPGKAPELLIYKVSNRFSGVPDRFSGSGSGTDFTLKISRVEAEDVGVYYCFQGSHIPFTFGQGTKLEIKRTVAAPSVFIFPPSDEQLKSGTASVVCLLNNFYPREAKVQWKVDNALQSGNSQESVTEQDSKDSTYSLSSTLTLSKADYEKHKVYACEVTHQGLSSPVTKSFNRGEC
1.9 | H46/L27 (antibody, human IgG1, kappa) heavy: not shown light: DVVMTQSPLSLPVTLGQPASISCRSSRNIVHTNGNTYLEWYQQKPGKAPELLIYKVSNRFSGVPDRFSGSGSGTDFTLKISRVEAEDVGVYYCFQGSHIPFTFGQGTKLEIKRTVAAPSVFIFPPSDEQLKSGTASVVCLLNNFYPREAKVQWKVDNALQSGNSQESVTEQDSKDSTYSLSSTLTLSKADYEKHKVYACEVTHQGLSSPVTKSFNRGEC
2.01 | H36/L34 (antibody, human IgG1, kappa) heavy: not shown light: DVVMTQSPLSLPVTLGRPASISCRSSRNIVHTNGNTYLEWYQQKPGKAPKLLIYKVSNRFSGVPDRFSGSGSGTDFTLKISRVEAEDVGVYYCFQGSHIPFTFGQGTKLEIKRTVAAPSVFIFPPSDEQLKSGTASVVCLLNNFYPREAKVQWKVDNALQSGNSQESVTEQDSKDSTYSLSSTLTLSKADYEKHKVYACEVTHQGLSSPVTKSFNRGEC
1.87 | H46/L0 (antibody, human IgG1, kappa) heavy: not shown light: DVVMTQSPLSLPVTLGQPASISCRSSQNIVHTNGNTYLEWYQQKPGKAPELLIYKVSNRFSGVPDRFSGSGSGTDFTLKISRVEAEDVGVYYCFQGSHIPFTFGQGTKLEIKRTVAAPSVFIFPPSDEQLKSGTASVVCLLNNFYPREAKVQWKVDNALQSGNSQESVTEQDSKDSTYSLSSTLTLSKADYEKHKVYACEVTHQGLSSPVTKSFNRGEC
1.67 | H36/L31 (antibody, human IgG1, kappa) heavy: not shown light: DVVMTQSPLSLPVTLGQPASISCRSSRNIVHTNGNTYLEWYQQKPGKAPKLLIYKVSNRFSGVPDRFSGSGSGTDFTLKISRVEAEDVGVYYCFQGSHIPFTFGQGTKLEIKRTVAAPSVFIFPPSDEQLKSGTASVVCLLNNFYPREAKVQWKVDNALQSGNSQESVTEQDSKDSTYSLSSTLTLSKADYEKHKVYACEVTHQGLSSPVTKSFNRGEC
2.92 | H38/L0 (antibody, human IgG1, kappa, V domains shown) VH: QVTLKESGPVLVKPTETLTLTCTVSGFSLSSFGVDWVRQAPGKGLEWMGVIWGGGSTNYNKALKSRLTISKDNSKSQVVLTMTNMDPVDTATYYCAGEGSKYGAWFAYWGQGTLVTVSS VL: DVVMTQSPLSLPVTLGQPASISCRSSQNIVHTNGNTYLEWYQQKPGKAPELLIYKVSNRFSGVPDRFSGSGSGTDFTLKISRVEAEDVGVYYCFQGSHIPFTFGQGTKLEIKR
3.51 | H40/L0 (antibody, human IgG1, kappa, V domains shown) VH: QVTLKESGPVLVKPTETLTLTCTVSGFSLSKFGVDWVRQARGQRLEWMGVIWGGGSTNYNSALKSRLTISKDNSKSQVVLTMTNMDPVDTATYYCAGEGSKYGAWFAYWGQGTLVTVSS VL: DVVMTQSPLSLPVTLGQPASISCRSSQNIVHTNGNTYLEWYQQKPGKAPELLIYKVSNRFSGVPDRFSGSGSGTDFTLKISRVEAEDVGVYYCFQGSHIPFTFGQGTKLEIKR
1.95 | H36/L28 (antibody, human IgG1, kappa) heavy: not shown light: DVVMTQSPLSLPVTLGQPASISCRSSQNIVHTNGNTYLEWYQQKPGKAPKLLIYKVSNRFSGVPDRFSGSGSGTDFTLKISRVEAEDVGVYYCFQGSHIPFTFGQGTKLEIKRTVAAPSVFIFPPSDEQLKSGTASVVCLLNNFYPREAKVQWKVDNALQSGNSQESVTEQDSKDSTYSLSSTLTLSKADYEKHKVYACEVTHQGLSSPVTKSFNRGEC
2.92 | H37/L0 (antibody, human IgG1, kappa, V domains shown) VH: QVTLKESGPVLVKPTETLTLTCTVSGFSLSSFGVDWVRQAPGKGLEWMGVIWGGGSTNYNRALKSRLTISKDNSKSQVVLTMTNMDPVDTATYYCAGEGSKYGAWFAYWGQGTLVTVSS VL: DVVMTQSPLSLPVTLGQPASISCRSSQNIVHTNGNTYLEWYQQKPGKAPELLIYKVSNRFSGVPDRFSGSGSGTDFTLKISRVEAEDVGVYYCFQGSHIPFTFGQGTKLEIKR
3.43 | H39/L0 (antibody, human IgG1, kappa) heavy: not shown light: DVVMTQSPLSLPVTLGQPASISCRSSQNIVHTNGNTYLEWYQQKPGKAPELLIYKVSNRFSGVPDRFSGSGSGTDFTLKISRVEAEDVGVYYCFQGSHIPFTFGQGTKLEIKRTVAAPSVFIFPPSDEQLKSGTASVVCLLNNFYPREAKVQWKVDNALQSGNSQESVTEQDSKDSTYSLSSTLTLSKADYEKHKVYACEVTHQGLSSPVTKSFNRGEC
2.35 | H41/L0 (antibody, human IgG1, kappa, V domains shown) VH: QVTLKESGPVLVKPTETLTLTCTVSGFSLSRFGVDWVRQARGQRLEWMGVIWGGGSTNYNSALKSRLTISKDNSKSQVVLTMTNMDPVDTATYYCAGEGSKYGAWFAYWGQGTLVTVSS VL: DVVMTQSPLSLPVTLGQPASISCRSSQNIVHTNGNTYLEWYQQKPGKAPELLIYKVSNRFSGVPDRFSGSGSGTDFTLKISRVEAEDVGVYYCFQGSHIPFTFGQGTKLEIKR
2.2 | H36/L37 (antibody, human IgG1, kappa) heavy: not shown light: DVVMTQSPLSLPVTLGRPASISCRSSRNIVHTNGNTYLEWYQQKPGKAPKLLIYKVSNRFSGVPDRFSGSGSGTDFTLKISRVEAEDVGVYYCFQGSHIPFTFGRGTKLEIKRTVAAPSVFIFPPSDEQLKSGTASVVCLLNNFYPREAKVQWKVDNALQSGNSQESVTEQDSKDSTYSLSSTLTLSKADYEKHKVYACEVTHQGLSSPVTKSFNRGEC
1.8 | H46/L11 (antibody, human IgG1, kappa) heavy: not shown light: DVVMTQSPLSLPVTLGQPASISCQSSQNIVHTNGNTYLEWYQQKPGKAPELLIYKVSNRFSGVPDRFSGSGSGTDFTLKISRVEAEDVGVYYCFQGSHIPFTFGQGTKVEIERTVAAPSVFIFPPSDEQLKSGTASVVCLLNNFYPREAKVQWKVDNALQSGNSQESVTEQDSKDSTYSLSSTLTLSKADYEKHKVYACEVTHQGLSSPVTKSFNRGEC
1.94 | H36/L35 (antibody, human IgG1, kappa) heavy: not shown light: DVVMTQSPLSLPVTLGQPASISCRSSRNIVHTNGNTYLEWYQQKPGKAPKLLIYKVSNRFSGVPDRFSGSGSGTDFTLKISRVEAEDVGVYYCFQGSHIPFTFGRGTKLEIKRTVAAPSVFIFPPSDEQLKSGTASVVCLLNNFYPREAKVQWKVDNALQSGNSQESVTEQDSKDSTYSLSSTLTLSKADYEKHKVYACEVTHQGLSSPVTKSFNRGEC
1.9 | H46/L31 (antibody, human IgG1, kappa) heavy: not shown light: DVVMTQSPLSLPVTLGQPASISCRSSRNIVHTNGNTYLEWYQQKPGKAPKLLIYKVSNRFSGVPDRFSGSGSGTDFTLKISRVEAEDVGVYYCFQGSHIPFTFGQGTKLEIKRTVAAPSVFIFPPSDEQLKSGTASVVCLLNNFYPREAKVQWKVDNALQSGNSQESVTEQDSKDSTYSLSSTLTLSKADYEKHKVYACEVTHQGLSSPVTKSFNRGEC
